{
  "source": "patent US20220241369A1",
  "about": "“COMPOSITIONS AND METHODS OF MODULATING INFLAMMATION” (La Jolla Institute for Allergy and Immunology, priority 2018, published 2022)",
  "molecules": {"B1": {"name": "HRF-2CA-His6, a monomeric mutant of mouse HRF (protein)", "chain": "MIIYRDLISHDELFSDIYKIREIADGLALEVEGKMVSRTEGAIDDSLIGGNASAEGPEGEGTESTVVTGVDIVMNHHLQETSFTKEAYKKYIKDYMKSLKGKLEEQKPERVKPFMTGAAEQIKHILANFNNYQFFIGENMNPDGMVALLDYREDGVTPFMIFFKDGLEMEKAHHHHHH"}},
  "key": {"[1]": {"test_system": "sensitization phase of murine food allergy", "assay": "Pretreatment with HRF inhibitor before sensitization with OVA plus alum", "assay_type": "in vivo, mouse", "settings": "100 μg i.g. one day before i.p. immunization on days 0 and 14", "experimental": "Mice were i.g. pretreated with 100 μg of GST, GST-N19, HRF-2CA or PBS (OVA) one day before i.p. immunization with OVA plus alum on days 0 and 14. From day 28, mice were i.g. challenged with OVA three times a week. (FIG. 9A) Procedure scheme. (FIG. 9B) The development of diarrhea was monitored after OVA challenge. (n=5 for OVA, n=4 for GST, n=5 for N19, n=5 for 2CA, and n=3 each for unsensitized pretreated groups (not shown)). (FIG. 9C, FIG. 9D) Total IgE and IgG1 were measured by ELISA.\nWhether HRF inhibitors affect the sensitization phase of food allergy was tested."}, "[2]": {"test_system": "OVA-induced food allergy (allergic diarrhea)", "assay": "IgE-mediated experimental food allergy, i.g. pretreatment with HRF inhibitor before each OVA challenge", "assay_type": "in vivo, mouse", "experimental": "FIGS. 1A-1I show GST-N19 inhibits the development of diarrhea and intestinal mastocytosis in murine food allergy. Mice were i.p. sensitized with OVA ([…]) plus alum on days 0 and 14. From day 28, mice were i.g. challenged with OVA (50 mg) three times a week. Sensitized mice were either non-pretreated (−) or i.g. pretreated with 100 μg of GST or GST-N19 (N19). (FIG. 1A) Procedure scheme. (FIG. 1B) The development of diarrhea was monitored for 90 min after each OVA challenge. (n=5 for non-sensitized group, n=3 for inhibitor non-pretreated group, n=4 for GST group, n=6 for N19 group, data are representative of at least 3 independent experiments) Log-rank test: p=0.028 (GST vs. GST-N19), p=0.036 (control vs. GST-N19). […] (FIG. 1C-FIG. 1E) Total IgE, IgG1, HRF, and HRF-reactive IgE and IgG in sera were measured by ELISA. (FIG. 1F) Serum mMCP-1 was also measured by ELISA. (FIG. 1G) Sections of jejunum were stained with chloroacetate esterase to identify mast cells. Sections indicated by rectangles are enlarged in lower rows. Bar=100 μm in large pictures and 50 μm in insets. (FIG. 1H) Flow cytometry was performed to enumerate MMC9s (Lin^−c-Kit^+ST2^+IL-17RB^−Integrin β7^lo) in jejunum. (n=14 for non-sensitized group, n=15 for inhibitor non-pretreated group, n=9 for GST group, n=9 for GST-N19 group, pooled data of 3 independent experiments) (FIG. 1I) Cytokine mRNAs in jejunum were quantified by qRT-PCR. *, **: p<0.05, p<0.01 by ANOVA with Tukey's multiple comparison.\nMice were i.p. sensitized with OVA (50 μg/mouse) plus alum on days 0 and 14. From day 28, mice were i.g. challenged with OVA (25 or 50 mg) or PBS (control) three times a week. Before each challenge, mice were starved for 3 h, then i.g. pretreated with GST, GST-N19 (100 μg/mouse), synthetic N19 peptide, or HRF-2CA. The development of diarrhea was monitored for 90 min after OVA challenge. Diarrhea severity (30) was based on states of stool: solid (score 0), funicular (score 1), slurry (score 2), and watery (score 3).\nFor histologic analysis, jejunal tissue was fixed in 10% formalin. Mast cells in jejunal sections were detected by chloroacetate esterase staining. IgE, IgG, IgG1, IgG2a, mMCP-1, HRF, HRF-reactive IgE, and HRF-reactive IgG 24 h after the last OVA challenge were measured by ELISA (see Supplemental Information). Cytokine mRNAs in jejunum were quantified by qRT-PCR.\nTwenty-four hours after the last OVA challenge, mice were sacrificed and small intestines (0.5-15 cm from stomach) were collected. The intestinal tissues were opened longitudinally and washed with HBSS. The washed tissues were incubated with 5 mM EDTA-HBSS for 30 min at 4° C., transferred to 30 ml HBSS in 50 ml tubes, and vigorously shaken to remove intestinal epithelial cells. The tissues were then washed with 10 ml of 10% FCS RPMI medium. Tissues were cut into tiny pieces and incubated with 2.4 mg/ml Collagenase D and 0.2 mg/ml DNase for 30 min at 37° C. Then cells were washed, resuspended in 44% Percoll solution, and slowly loaded on the top of 67% Percoll solution. The cells were centrifuged (1800 rpm, 20 min) and lymphocyte fractions were collected and used for detection of MMC9s (Lin^−c-Kit^+ST2^+IL-17RB^−Integrin β7^lo).\nThe cells were first incubated with 2.4G2 for 15 min at 4° C. and further incubated with Abs (PE-anti-07 integrin mAb (clone FIB504), PerCP/Cy5.5-anti-CD4 mAb (clone RM4-5), PerCP/Cy5.5-anti-CD8 mAb (clone 53-6.7), PerCP/Cy5.5-anti-CD11b mAb (clone M1/70), PerCP/Cy5.5-anti-CD11c mAb (clone N418), PerCP/Cy5.5-anti-B220 mAb (RA3-6B2), PerCP/Cy5.5-anti-Ly-6G/Ly-6C mAb (clone RB6-8C5), PerCP/Cy5.5-anti-CD335 mAb (clone 29A1.4), AlexaFluor647-anti-IL-17RB (clone 9B10), APC/Cy7-anti-CD117 (clone 2B8), Biotin-anti-ST2 (clone DIH9)) (Biolegend) for 30 min at 4° C. After washed, the cells were incubated with SA-BV421 (Biolegend) for 30 min at 4° C. MMC9 population was identified using FACS Canto. Data were analyzed using FlowJo software."}},
  "data": [
    {"molecule": "B1", "values": [
      {"measurement": "sensitization phase of murine food allergy", "setting": "[1]", "value": "do not affect"},
      {"measurement": "HRF-reactive IgE levels", "setting": "[2]; OVA-sensitized mice after OVA challenges, i.g. pretreatment", "value": "did not affect"},
      {"measurement": "reduction of HRF-reactive IgG levels", "setting": "[2]; after eleven OVA challenges", "value": "not affected"},
      {"measurement": "number of mucosal mast cells in jejunum (intestinal mastocytosis)", "setting": "[2]; i.g. pretreatment before each OVA challenge, chloroacetate esterase staining", "value": "inhibits"},
      {"measurement": "levels of total IgE, IgG1, IgG2a or HRF-reactive IgE and IgG", "setting": "[2]; i.g. pretreatment, serum ELISA", "value": "failed to affect"},
      {"measurement": "diarrhea occurrence / incidence", "setting": "[2]; sensitized mice pretreated i.g. with 100 μg before each OVA challenge", "value": "inhibits"}
    ]}
  ]
}
